Assay results published in patent US20090048164A1.
Read-outs that look alike come from different tables or passages of the source.

Assays:
[1] = biological target: Recombinant human Bcl-xL with a 25 amino acid truncation of its C-terminus (human) (UniProt Q07817); test: Bim BH3 substitution scan
[2] = biological target: Bcl-w; test: competition phage ELISA
[3] = biological target: Recombinant human Bcl-xL with a 25 amino acid truncation of its C-terminus (human) (UniProt Q07817); test: competition phage ELISA
[4] = biological target: mouse Mcl-1 with truncations of 151 amino acid residues at its N-terminus and 23 residues at its C-terminus (mouse) (UniProt P97287); test: competition phage ELISA
Sequence of mouse Mcl-1 with truncations of 151 amino acid residues at its N-terminus and 23 residues at its C-terminus (mouse) (P97287 152-308): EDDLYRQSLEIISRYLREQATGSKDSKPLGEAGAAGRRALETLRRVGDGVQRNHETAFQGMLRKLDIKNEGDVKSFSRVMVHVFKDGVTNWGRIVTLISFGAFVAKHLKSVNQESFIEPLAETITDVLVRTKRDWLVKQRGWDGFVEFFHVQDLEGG

[5] = biological target: Recombinant human Bcl-xL with a 25 amino acid truncation of its C-terminus (human) (UniProt Q07817); test: competition phage ELISA; remark: listed apart in the source
[6] = biological target: Bcl-2; test: competition phage ELISA
Sequence of Bcl-2 (P10415 1-217): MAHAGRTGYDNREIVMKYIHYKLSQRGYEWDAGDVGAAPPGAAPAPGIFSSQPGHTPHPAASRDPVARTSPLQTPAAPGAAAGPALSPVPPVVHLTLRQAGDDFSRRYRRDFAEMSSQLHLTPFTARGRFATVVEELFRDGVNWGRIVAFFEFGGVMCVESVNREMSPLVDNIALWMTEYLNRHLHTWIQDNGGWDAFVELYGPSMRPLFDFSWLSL

[7] = biological target: Bcl-w; test: Biacore competition vs immobilised BimBH3
[8] = biological target: Recombinant human Bcl-xL with a 25 amino acid truncation of its C-terminus (human) (UniProt Q07817); test: Biacore competition vs immobilised BimBH3
[9] = biological target: mouse Mcl-1 with truncations of 151 amino acid residues at its N-terminus and 23 residues at its C-terminus (mouse) (UniProt P97287); test: Biacore competition vs immobilised BimBH3
[10] = biological target: Bcl-2; test: Biacore competition vs immobilised BimBH3
[11] = biological target: A1; test: Biacore competition vs immobilised BimBH3
[12] = biological target: pro-survival proteins; test: cell-based or functional assay
[13] = biological target: mouse Mcl-1 with truncations of 151 amino acid residues at its N-terminus and 23 residues at its C-terminus (mouse) (UniProt P97287); test: Biacore competition, synthetic peptides
[14] = biological target: A1; test: Biacore competition, synthetic peptides
[15] = biological target: Bcl-w; test: Biacore competition, synthetic peptides; against wild-type BimBH3 peptide
[16] = biological target: Recombinant human Bcl-xL with a 25 amino acid truncation of its C-terminus (human) (UniProt Q07817); test: as above
[17] = biological target: mouse Mcl-1 with truncations of 151 amino acid residues at its N-terminus and 23 residues at its C-terminus (mouse) (UniProt P97287); test: as above
[18] = biological target: Bcl-2; test: as above
[19] = biological target: A1; test: as above

Sequence of Recombinant human Bcl-xL with a 25 amino acid truncation of its C-terminus (human) (Q07817 1-208): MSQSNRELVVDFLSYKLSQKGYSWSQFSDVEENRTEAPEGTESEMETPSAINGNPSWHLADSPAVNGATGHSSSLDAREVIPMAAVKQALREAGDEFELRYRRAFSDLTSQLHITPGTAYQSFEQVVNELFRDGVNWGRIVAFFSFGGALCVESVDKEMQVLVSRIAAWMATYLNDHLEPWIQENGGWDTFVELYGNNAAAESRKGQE
Sequence of Bcl-w (Q92843 1-164): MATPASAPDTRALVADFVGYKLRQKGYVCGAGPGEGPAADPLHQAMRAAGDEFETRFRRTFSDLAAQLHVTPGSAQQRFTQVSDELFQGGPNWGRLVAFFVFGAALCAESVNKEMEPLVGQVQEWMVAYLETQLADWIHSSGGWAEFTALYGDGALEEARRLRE

Substance | Fold/wt [3] | IC50 [3] | Fold/wt [4] | IC50 [4] | also measured
Bim BH3 L12A, phage-displayed (peptide) | 43 fold | 124 nM | 1 fold | 10 nM | fold decrease in affinity [1]: 50 to 80 fold; Fold/wt [2]: 24 fold; IC50 [2]: 486 nM; IC50 [5]: 130 nM; fold weaker than wild-type BimBH3 [5]: 50 fold
Bim BH3 F19A, phage-displayed (peptide) | 24 fold | 69 nM |  | 16 nM | Fold/wt [2]: 18 fold; IC50 [2]: 364 nM; IC50 [6]: 11 nM; IC50 [5]: 60 nM; fold weaker than wild-type BimBH3 [5]: 20 fold
BimBH3 G16E synthetic peptide |  |  |  |  | Fold/wt BimBH3 [7]: > 256 fold; Fold/wt BimBH3 [8]: 83 fold; Fold/wt BimBH3 [9]: 18 fold; Fold/wt BimBH3 [10]: 306 fold; Fold/wt BimBH3 [11]: 260 fold
Bim BH3 D17A, phage-displayed (peptide) |  |  | 28 fold | 256 nM | fold effect on binding [4]: 15 fold
Bim BH3 Q10A, phage-displayed (peptide) | 1 fold | 4 nM | 1 fold | 10 nM | 
BimBH3 I8A synthetic peptide |  |  |  |  | Fold/wt BimBH3 [7]: 2 fold; Fold/wt BimBH3 [8]: 1 fold; Fold/wt BimBH3 [9]: 1 fold; Fold/wt BimBH3 [10]: 3 fold; Fold/wt BimBH3 [11]: 1 fold
Bim BH3 Y22A, phage-displayed (peptide) | 1 fold | 4 nM | 1 fold | 12 nM | 
Bim BH3 N20A, phage-displayed (peptide) | 2 fold | 5 nM | 1 fold | 7 nM | 
Bim BH3 R14A, phage-displayed (peptide) | 2 fold | 5 nM | 1 fold | 10 nM | 
Bim BH3 E5A, phage-displayed (peptide) | 1 fold | 3 nM | 1 fold | 10 nM | 
Bim BH3 E11A, phage-displayed (peptide) | 1 fold | 4 nM | 1 fold | 10 nM | 
Bim BH3 R13A, phage-displayed (peptide) | 1 fold | 4 nM | 1 fold | 13 nM | 
Bim BH3 P4A, phage-displayed (peptide) | 1 fold | 3 nM | 1 fold | 12 nM | 
Bim BH3 I8A, phage-displayed (peptide) | 2 fold | 7 nM | 1 fold | 9 nM | Fold/wt [2]: 4 fold; IC50 [2]: 74 nM; Fold/wt [6]: 3 fold; IC50 [6]: 17 nM
BimBH3 I15A synthetic peptide |  |  |  |  | Fold/wt BimBH3 [7]: 1 fold; Fold/wt BimBH3 [8]: 1 fold; Fold/wt BimBH3 [9]: 2 fold; Fold/wt BimBH3 [10]: 2 fold; Fold/wt BimBH3 [11]: 2 fold
BimS L12A |  |  |  |  | % viability in wild-type MEFs [12]: 57%
BimS G16E |  |  |  |  | % viability in wild-type MEFs [12]: 93%
BimS F19A |  |  |  |  | % viability in wild-type MEFs [12]: 22%
Bim BH3 L12F, phage-displayed (peptide) |  |  |  |  | fold decrease in binding affinity [1]: 5 fold
Bim BH3 W7A, phage-displayed (peptide) | 1 fold | 3 nM | 1 fold | 10 nM | 
Bim BH3 R26A, phage-displayed (peptide) | 1 fold | 4 nM | 1 fold | 8 nM | 
Bim BH3 I6A, phage-displayed (peptide) | 3 fold | 8 nM | 1 fold | 11 nM | 

Substance | Fold/wt [3] | IC50 [3] | Fold/wt [4] | IC50 [4] | also measured
Bim BH3 Y23A, phage-displayed (peptide) | 1 fold | 4 nM | 1 fold | 12 nM | 
Bim BH3 I15A, phage-displayed (peptide) | 1 fold | 2 nM | 1 fold | 10 nM | Fold/wt [2]: 1 fold; IC50 [2]: 18 nM; Fold/wt [6]: 1 fold; IC50 [6]: 7 nM
BimBH3 L12A synthetic peptide |  |  |  |  | fold decrease in binding affinity [13]: 2 fold; fold decrease in binding affinity [14]: 7 fold; Fold/wt BimBH3 [7]: 31 fold; Fold/wt BimBH3 [8]: 11 fold; Fold/wt BimBH3 [9]: 1 fold; Fold/wt BimBH3 [10]: 43 fold; Fold/wt BimBH3 [11]: 17 fold
BimS A9E |  |  |  |  | % viability in wild-type MEFs [12]: 55%
BimBH3 L12A + F19A synthetic peptide |  |  |  |  | Fold/wt BimBH3 [8]: > 1560 fold; Fold/wt BimBH3 [9]: 1 fold; Fold/wt BimBH3 [11]: 120 fold
wild-type full-length BimS |  |  |  |  | % viability in wild-type MEFs [12]: 19%
Bim BH3 D1A, phage-displayed (peptide) | 1 fold | 3 nM | 1 fold | 10 nM | 
Bim BH3 R25A, phage-displayed (peptide) | 1 fold | 2 nM | 1 fold | 8 nM | 
BimBH3 D17A synthetic peptide |  |  |  |  | Fold/wt BimBH3 [7]: 30 fold; Fold/wt BimBH3 [8]: 3 fold; Fold/wt BimBH3 [9]: 2 fold; Fold/wt BimBH3 [10]: 4 fold; Fold/wt BimBH3 [11]: 1 fold
BimBH3 F19A synthetic peptide |  |  |  |  | fold decrease in binding affinity [15]: 8 fold; fold decrease in binding affinity [16]: < 3 fold; fold decrease in binding affinity [17]: < 3 fold; fold decrease in binding affinity [18]: < 3 fold; fold decrease in binding affinity [19]: < 3 fold; Fold/wt BimBH3 [7]: 8 fold; Fold/wt BimBH3 [9]: 1 fold; Fold/wt BimBH3 [10]: 3 fold; Fold/wt BimBH3 [11]: 1 fold
Bim BH3 A9E, phage-displayed (peptide) |  |  | 3 fold | 32 nM | 
Bim BH3 R3A, phage-displayed (peptide) | 1 fold | 3 nM | 1 fold | 9 nM | 
Bim BH3 M2A, phage-displayed (peptide) | 2 fold | 4 nM | 1 fold | 13 nM | 
Bim BH3 L12V, phage-displayed (peptide) |  |  |  |  | fold decrease in affinity [1]: 50 to 80 fold
BimBH3 A9E synthetic peptide |  |  |  |  | Fold/wt BimBH3 [7]: 34 fold; Fold/wt BimBH3 [8]: 68 fold; Fold/wt BimBH3 [9]: 2 fold; Fold/wt BimBH3 [10]: 56 fold; Fold/wt BimBH3 [11]: 7 fold
Bim BH3 L12W, phage-displayed (peptide) |  |  |  |  | fold decrease in binding affinity [1]: 22 fold
Bim BH3 A24E, phage-displayed (peptide) | 1 fold | 2 nM | 1 fold | 8 nM | 
Bim BH3 G16E, phage-displayed (peptide) |  |  | 3 fold | 27 nM | fold effect on binding [4]: 38 fold
Bim BH3 E18A, phage-displayed (peptide) | 3 fold | 8 nM | 9 fold | 80 nM | 
mNoxaA BH3 D26A, phage-displayed (peptide) |  |  | 2 fold | 62 nM | 
Bim BH3 A21E, phage-displayed (peptide) | 1 fold | 3 nM | 2 fold | 16 nM | 
